# Where “and” joins values, the source holds several entries; their conditions need not be identical. Equal values may be shown once.
# B1: Mu8.1 (natural protein)
# chain: GENSDNLTHCRLFEFRLCLLECMSLTLDHCYARCTTVITQIHGSDTNRFDCTIFKTCYYRCYVLGKTEDHCWKGTATSVTGDVGDLEFC
# How the values were obtained:
# SEC = target: the molecule itself; assay: SEC
# SAXS = target: the molecule itself; assay: SAXS
protein,measurement,setting,value
B1,stoichiometry N,SEC,2
same,stoichiometry N,SAXS,4 and 6
